Drawing on patent publication US20150125444A1 (AstraZeneca / MedImmune, published 2015), this text covers binding result and Kd for six molecules.

Holding throughout (test): SPR (ProteOn XPR36), antibody immobilised, steady state, pH 7.4
Experiment [1] addresses T1, Human FcγRIIIa (158V) extracellular domain (human, UniProt P08637 17-208).
T1 construct: extracellular domain; Position 158 is the usual allotype numbering (mature protein), not the precursor numbering of the database entry; also called FcγRIII(158V)
Here is the method:
(§1) Experiments were performed using the ProteOn XPR36 surface plasmon resonance system (Bio Rad). Phosphate buffered saline with 0.005% Tween 20 (PBS/Tween), pH 7.4 was used as running buffer for most experiments with the exception of Human FcRn (extracellular domain) binding in which Phosphate buffered saline with 0.005% Tween 20 (PBS/Tween), pH 6.0 was used. All experiments were performed at 25° C. Antibodies were immobilized on a ProteOn™ GLC Sensor Chip (#176-5011) using EDAC (1-Ethyl-3-[3-dimethylaminopropyl]carbodiimide) and sulfo-NHS (N-hydroxysulfosuccinimide) to an R.U. (response unit) level of 4000-6000. C1q, FcγRI, FcγRIIa, FcγRIIb, FcγRIII(158V), FcγRIII(158F), and FcRn were then flowed over the IgG immobilized surface at various concentrations at a rate of 25 μl/minute for a long enough period of time to achieve steady state, or near steady state. Binding (if any could be determined) was quantified via steady state equilibrium binding analysis using the ProteOn software. Human FcγRI, FcγRIIa, FcγRIIb, FcγRIII(158V), FcγRIII(158F), and FcRn extracellular domains were generated via mammalian expression vectors in house. Human C1q was obtained from Quidel (CA).

Experiment [2] has as its target T2, Human FcγRIIIa (158F) extracellular domain (human, UniProt P08637 17-208).
T2 construct: extracellular domain; also called FcγRIII(158F)
Here is the method: as §1

The target in experiment [3] is T3, Human FcγRIIa extracellular domain (human, UniProt P12318 34-217).
T3 construct: extracellular domain
T3 sequence (looked up): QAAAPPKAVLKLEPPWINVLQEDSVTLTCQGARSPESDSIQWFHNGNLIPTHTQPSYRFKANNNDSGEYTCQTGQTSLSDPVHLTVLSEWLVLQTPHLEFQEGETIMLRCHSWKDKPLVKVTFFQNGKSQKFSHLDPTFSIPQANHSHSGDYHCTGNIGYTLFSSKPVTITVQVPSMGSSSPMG
The procedure: as §1

The target in experiment [4] is T4, Human FcγRIIb extracellular domain (human, UniProt P31994 43-217).
T4 construct: extracellular domain
T4 sequence (looked up): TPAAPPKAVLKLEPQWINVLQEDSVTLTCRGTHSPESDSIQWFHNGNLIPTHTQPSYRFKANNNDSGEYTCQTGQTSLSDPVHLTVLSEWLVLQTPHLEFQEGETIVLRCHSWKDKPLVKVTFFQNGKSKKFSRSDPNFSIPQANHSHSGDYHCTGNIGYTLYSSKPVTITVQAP
Here is the method:
as §1

Experiment [5] deals with T5, Human FcγRIa extracellular domain (human, UniProt P12314 16-292).
T5 construct: extracellular domain
Here is the method:
as §1

A further experiment deals with T6, Human C1q (human, UniProt P02745 23-245; P02746 28-253; P02747 29-245).
T6 construct: Bought complement protein; In the CDC assay C1q came with human serum
Here is the method:
as §1

T2 sequence (P08637 17-208): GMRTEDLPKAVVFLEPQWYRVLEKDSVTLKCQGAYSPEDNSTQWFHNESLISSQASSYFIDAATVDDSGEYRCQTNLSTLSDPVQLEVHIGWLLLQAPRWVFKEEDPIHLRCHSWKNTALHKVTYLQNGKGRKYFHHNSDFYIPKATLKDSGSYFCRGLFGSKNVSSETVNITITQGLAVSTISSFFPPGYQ
T1 sequence (P08637 17-208 F176V): as the sequence (P08637 17-208) above, with F160V counted along it
T5 sequence (P12314 16-292): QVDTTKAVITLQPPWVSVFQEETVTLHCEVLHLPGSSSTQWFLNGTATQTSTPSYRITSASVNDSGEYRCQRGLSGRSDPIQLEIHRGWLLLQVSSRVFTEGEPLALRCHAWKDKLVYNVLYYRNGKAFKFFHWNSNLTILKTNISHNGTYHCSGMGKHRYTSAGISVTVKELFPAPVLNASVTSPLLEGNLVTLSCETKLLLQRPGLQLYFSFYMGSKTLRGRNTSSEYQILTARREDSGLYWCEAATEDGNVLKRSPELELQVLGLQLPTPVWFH
T6 sequence (P02745 23-245 limits assumed, chain 1 of 3): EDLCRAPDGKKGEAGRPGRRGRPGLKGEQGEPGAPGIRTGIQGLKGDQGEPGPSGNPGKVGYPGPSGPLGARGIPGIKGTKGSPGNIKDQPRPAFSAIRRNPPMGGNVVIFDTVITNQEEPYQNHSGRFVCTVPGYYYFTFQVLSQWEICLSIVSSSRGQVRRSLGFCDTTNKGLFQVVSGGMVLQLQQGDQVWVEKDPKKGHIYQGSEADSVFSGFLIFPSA
T6 sequence (P02746 28-253 limits assumed, chain 2 of 3): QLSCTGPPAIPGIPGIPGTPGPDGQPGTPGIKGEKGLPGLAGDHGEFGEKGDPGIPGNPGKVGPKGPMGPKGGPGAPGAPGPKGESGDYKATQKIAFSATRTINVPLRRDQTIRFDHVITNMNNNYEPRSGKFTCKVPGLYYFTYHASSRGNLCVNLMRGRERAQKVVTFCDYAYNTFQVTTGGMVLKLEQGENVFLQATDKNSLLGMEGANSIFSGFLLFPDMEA
T6 sequence (P02747 29-245 limits assumed, chain 3 of 3): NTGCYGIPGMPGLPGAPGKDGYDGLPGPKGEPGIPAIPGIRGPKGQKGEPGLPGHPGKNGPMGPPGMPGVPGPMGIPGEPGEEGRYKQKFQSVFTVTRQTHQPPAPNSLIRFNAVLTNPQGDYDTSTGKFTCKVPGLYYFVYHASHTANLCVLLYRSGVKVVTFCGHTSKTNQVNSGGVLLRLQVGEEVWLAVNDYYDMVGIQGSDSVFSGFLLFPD

B1: Ab3 (anti-CD20 antibody HB20.3) with FAQ-YTE variant IgG1 Fc domain (antibody)
heavy: QVQLQQPGAELVKPGASVKMSCKASGFTFTNYNMHWLKQTPGQGLEWIGAIYPENGDTSYNQKFKGKATLTADKASSTAYMHLSSLTSEDSAVYFCARFYYYGSYYGAMDYWGQGTSVTVSSASTKGPSVFPLAPSSKSTSGGTAALGCLVKDYFPEPVTVSWNSGALTSGVHTFPAVLQSSGLYSLSSVVTVPSSSLGTQTYICNVNHKPSNTKVDKRVEPKSCDKTHTCPPCPAPEFAGGPSVFLFPPKPKDTLYITREPEVTCVVVDVSHEDPEVKFNWYVDGVEVHNAKTKPREEQYNSTYRVVSVLTVLHQDWLNGKEYKCQVSNKALPAPIEKTISKAKGQPREPQVYTLPPSREEMTKNQVSLTCLVKGFYPSDIAVEWESNGQPENNYKTTPPVLDSDGSFFLYSKLTVDKSRWQQGNVFSCSVMHEALHNHYTQKSLSLSPGK
light: DIQMTQSPASLSASVGETVTITCRASGNIHNYLAWYQQKQGKSPQLLVYNAKTLADGVPSRFSGSGSGTQFSLKINSLQPEDFGSYYCQHFWSTPWTFGGGTKLEIKRTVAAPSVFIFPPSDEQLKSGTASVVCLLNNFYPREAKVQWKVDNALQSGNSQESVTEQDSKDSTYSLSSTLTLSKADYEKHKVYACEVTHQGLSSPVTKSFNRGEC
notes: Full IgG1; also called Ab3 FAQ-YTE; YTE-FAQ
As to B1, the binding result (in experiment [1]; in experiment [2]; in experiment [3]; in experiment [4]; in experiment [5]; with Human C1q) was “no binding” throughout.

B2: Ab3 (anti-CD20 antibody HB20.3) with FQG-YTE variant IgG1 Fc domain (antibody)
heavy: QVQLQQPGAELVKPGASVKMSCKASGFTFTNYNMHWLKQTPGQGLEWIGAIYPENGDTSYNQKFKGKATLTADKASSTAYMHLSSLTSEDSAVYFCARFYYYGSYYGAMDYWGQGTSVTVSSASTKGPSVFPLAPSSKSTSGGTAALGCLVKDYFPEPVTVSWNSGALTSGVHTFPAVLQSSGLYSLSSVVTVPSSSLGTQTYICNVNHKPSNTKVDKRVEPKSCDKTHTCPPCPAPEFQGGPSVFLFPPKPKDTLYITREPEVTCVVVDVSHEDPEVKFNWYVDGVEVHNAKTKPREEQYNSTYRVVSVLTVLHQDWLNGKEYKCKVSNKALPAGIEKTISKAKGQPREPQVYTLPPSREEMTKNQVSLTCLVKGFYPSDIAVEWESNGQPENNYKTTPPVLDSDGSFFLYSKLTVDKSRWQQGNVFSCSVMHEALHNHYTQKSLSLSPGK
light: DIQMTQSPASLSASVGETVTITCRASGNIHNYLAWYQQKQGKSPQLLVYNAKTLADGVPSRFSGSGSGTQFSLKINSLQPEDFGSYYCQHFWSTPWTFGGGTKLEIKRTVAAPSVFIFPPSDEQLKSGTASVVCLLNNFYPREAKVQWKVDNALQSGNSQESVTEQDSKDSTYSLSSTLTLSKADYEKHKVYACEVTHQGLSSPVTKSFNRGEC
notes: Full IgG1; also called Ab3 FQG-YTE; YTE-FQG
On to B2, for which the binding result (in experiment [1]; in experiment [2]; in experiment [3]; in experiment [4]; in experiment [5]; with Human C1q) was “no binding” each time.

B3: Ab3 (anti-CD20 antibody HB20.3) with FE-YTE variant IgG1 Fc domain (antibody)
heavy: QVQLQQPGAELVKPGASVKMSCKASGFTFTNYNMHWLKQTPGQGLEWIGAIYPENGDTSYNQKFKGKATLTADKASSTAYMHLSSLTSEDSAVYFCARFYYYGSYYGAMDYWGQGTSVTVSSASTKGPSVFPLAPSSKSTSGGTAALGCLVKDYFPEPVTVSWNSGALTSGVHTFPAVLQSSGLYSLSSVVTVPSSSLGTQTYICNVNHKPSNTKVDKRVEPKSCDKTHTCPPCPAPEFEGGPSVFLFPPKPKDTLYITREPEVTCVVVDVSHEDPEVKFNWYVDGVEVHNAKTKPREEQYNSTYRVVSVLTVLHQDWLNGKEYKCKVSNKALPAPIEKTISKAKGQPREPQVYTLPPSREEMTKNQVSLTCLVKGFYPSDIAVEWESNGQPENNYKTTPPVLDSDGSFFLYSKLTVDKSRWQQGNVFSCSVMHEALHNHYTQKSLSLSPGK
light: DIQMTQSPASLSASVGETVTITCRASGNIHNYLAWYQQKQGKSPQLLVYNAKTLADGVPSRFSGSGSGTQFSLKINSLQPEDFGSYYCQHFWSTPWTFGGGTKLEIKRTVAAPSVFIFPPSDEQLKSGTASVVCLLNNFYPREAKVQWKVDNALQSGNSQESVTEQDSKDSTYSLSSTLTLSKADYEKHKVYACEVTHQGLSSPVTKSFNRGEC
notes: Full IgG1; also called Ab3 FE-YTE; YTE-FE
Molecule B3 had a dissociation constant Kd with Human C1q of 360 nM. This lies in the sub-micromolar range.

B4: Ab3 (anti-CD20 antibody HB20.3) with FQQ-YTE variant IgG1 Fc domain (antibody)
heavy: QVQLQQPGAELVKPGASVKMSCKASGFTFTNYNMHWLKQTPGQGLEWIGAIYPENGDTSYNQKFKGKATLTADKASSTAYMHLSSLTSEDSAVYFCARFYYYGSYYGAMDYWGQGTSVTVSSASTKGPSVFPLAPSSKSTSGGTAALGCLVKDYFPEPVTVSWNSGALTSGVHTFPAVLQSSGLYSLSSVVTVPSSSLGTQTYICNVNHKPSNTKVDKRVEPKSCDKTHTCPPCPAPEFQGGPSVFLFPPKPKDTLYITREPEVTCVVVDVSHEDPEVKFNWYVDGVEVHNAKTKPREEQYNSTYRVVSVLTVLHQDWLNGKEYKCQVSNKALPAPIEKTISKAKGQPREPQVYTLPPSREEMTKNQVSLTCLVKGFYPSDIAVEWESNGQPENNYKTTPPVLDSDGSFFLYSKLTVDKSRWQQGNVFSCSVMHEALHNHYTQKSLSLSPGK
light: DIQMTQSPASLSASVGETVTITCRASGNIHNYLAWYQQKQGKSPQLLVYNAKTLADGVPSRFSGSGSGTQFSLKINSLQPEDFGSYYCQHFWSTPWTFGGGTKLEIKRTVAAPSVFIFPPSDEQLKSGTASVVCLLNNFYPREAKVQWKVDNALQSGNSQESVTEQDSKDSTYSLSSTLTLSKADYEKHKVYACEVTHQGLSSPVTKSFNRGEC
notes: Full IgG1; also called Ab3 FQQ-YTE; YTE-FQQ
Consider B4, for which the binding result (in experiment [1]; in experiment [2]; in experiment [3]; in experiment [4]; in experiment [5]; with Human C1q) was “no binding” each time.

B5: Ab4 (anti-C5a antibody 1B8) with FAQ-YTE variant IgG1 Fc domain (antibody)
heavy: EVQLLESGGGLVQPGGSLRLSCAASGFTFSSYVMNWVRQAPGKGLEWVSSISPSGGRTWYADSVKGRFTISRDNSKNTLYLQMNSLRAEDTAVYYCARSDGSAAGFLGYWGQGTLVTVSSASTKGPSVFPLAPSSKSTSGGTAALGCLVKDYFPEPVTVSWNSGALTSGVHTFPAVLQSSGLYSLSSVVTVPSSSLGTQTYICNVNHKPSNTKVDKRVEPKSCDKTHTCPPCPAPEFAGGPSVFLFPPKPKDTLYITREPEVTCVVVDVSHEDPEVKFNWYVDGVEVHNAKTKPREEQYNSTYRVVSVLTVLHQDWLNGKEYKCQVSNKALPAPIEKTISKAKGQPREPQVYTLPPSREEMTKNQVSLTCLVKGFYPSDIAVEWESNGQPENNYKTTPPVLDSDGSFFLYSKLTVDKSRWQQGNVFSCSVMHEALHNHYTQKSLSLSPGK
light: QSALTQPPSASGTPGQRVTISCSGTNSNIGSNYVFWYQQLPGTAPKLLIFESNRRPSGVPDRFSGSKSDTSASLAISGLRSEDEADYYCATWDDTLIAPVFGSGTKVTVLGQPKANPTVTLFPPSSEELQANKATLVCLISDFYPGAVTVAWKADSSPVKAGVETTTPSKQSNNKYAASSYLSLTPEQWKSHRSYSCQVTHEGSTVEKTVAPAEC
notes: Full IgG1; also called Ab4 FAQ-YTE
B5: the binding result (in experiment [1]; in experiment [2]; in experiment [3]; in experiment [4]; in experiment [5]; with Human C1q) was “no binding” throughout.

B6: Ab4 (anti-C5a antibody 1B8) with FE-YTE variant IgG1 Fc domain (antibody)
heavy: EVQLLESGGGLVQPGGSLRLSCAASGFTFSSYVMNWVRQAPGKGLEWVSSISPSGGRTWYADSVKGRFTISRDNSKNTLYLQMNSLRAEDTAVYYCARSDGSAAGFLGYWGQGTLVTVSSASTKGPSVFPLAPSSKSTSGGTAALGCLVKDYFPEPVTVSWNSGALTSGVHTFPAVLQSSGLYSLSSVVTVPSSSLGTQTYICNVNHKPSNTKVDKRVEPKSCDKTHTCPPCPAPEFEGGPSVFLFPPKPKDTLYITREPEVTCVVVDVSHEDPEVKFNWYVDGVEVHNAKTKPREEQYNSTYRVVSVLTVLHQDWLNGKEYKCKVSNKALPAPIEKTISKAKGQPREPQVYTLPPSREEMTKNQVSLTCLVKGFYPSDIAVEWESNGQPENNYKTTPPVLDSDGSFFLYSKLTVDKSRWQQGNVFSCSVMHEALHNHYTQKSLSLSPGK
light: QSALTQPPSASGTPGQRVTISCSGTNSNIGSNYVFWYQQLPGTAPKLLIFESNRRPSGVPDRFSGSKSDTSASLAISGLRSEDEADYYCATWDDTLIAPVFGSGTKVTVLGQPKANPTVTLFPPSSEELQANKATLVCLISDFYPGAVTVAWKADSSPVKAGVETTTPSKQSNNKYAASSYLSLTPEQWKSHRSYSCQVTHEGSTVEKTVAPAEC
notes: Full IgG1; also called Ab4 FE-YTE
Take B6: the binding result with Human C1q is on record as “binds”.
